According to publication PMC6249382, “The Maize Sulfite Reductase Is Involved in Cold and Oxidative Stress Responses” (Frontiers in Plant Science, 2018):

Substrate: O=S(O)O
Test: steady-state kinetics, Lineweaver-Burk plot
Assay type: biochemical, Zea mays
Details: 400 μM NADPH as electron donor (printed "electron acceptor"); sulfite 2.5-400 μM; 1.0 μg enzyme

B1: ZmSiR (Zea mays) (protein)
chain: MSGAIGGAEVHGFRGAAAQLPRSRVLGRPIRVAPPAAARPGGASAGSIRAVSAPAKKDASEVKRSKVEIIKEKSNFLRYPLNEELVSEAPNINESAVQLIKFHGSYQQTDRDVRGQKNYSFMLRTKNPCGKVPNQLYLAMDTLADEFGIGTLRLTTRQTFQLHGVLKKNLKTVLSTVIKNMGSTLGACGDLNRNVLAPAAPYVKKDILFAQQTAENIAALLTPQSGAYYDLWVDGEKIMSAEEPPEVTKARNDNSHGTNFPDSPEPIYGTQYLPRKFKVAVTAAGDNSVDILTNDIGVVVVSDDAGEPIGFNIYVGGGMGRTHRVETTFPRLADPLGYVPKEDILYAIKAIVVTQRENGRRDDRKYSRMKYMIDRWGIDRFRAEVEKYYGKKFESFRPLPEWQFNSYLGWQEQGDGKLFYGVHVDNGRVGGQAKKTLREIIEKYNLDVSITPNQNLILCGIDQAWREPITTALAQAGLLEPKDVDPLNLTAMACPALPLCPLAQTEAERGILPILKRIRAVFNKVGIKDSESVVVRITGCPNGCARPYMAELGFVGDGPKSYQIWLGGTPNQSTLAESFMDKVKLDDIEKVLEPLFTYWNGTRQEGESFGSFTNRTGFDKLKEVVNKWAESPSAA
- Km: 5.32 ± 0.26 µM
